Test [1] concerns the target T1, human calcitonin receptor (human, UniProt P30988 25-474).
T1 sequence (looked up): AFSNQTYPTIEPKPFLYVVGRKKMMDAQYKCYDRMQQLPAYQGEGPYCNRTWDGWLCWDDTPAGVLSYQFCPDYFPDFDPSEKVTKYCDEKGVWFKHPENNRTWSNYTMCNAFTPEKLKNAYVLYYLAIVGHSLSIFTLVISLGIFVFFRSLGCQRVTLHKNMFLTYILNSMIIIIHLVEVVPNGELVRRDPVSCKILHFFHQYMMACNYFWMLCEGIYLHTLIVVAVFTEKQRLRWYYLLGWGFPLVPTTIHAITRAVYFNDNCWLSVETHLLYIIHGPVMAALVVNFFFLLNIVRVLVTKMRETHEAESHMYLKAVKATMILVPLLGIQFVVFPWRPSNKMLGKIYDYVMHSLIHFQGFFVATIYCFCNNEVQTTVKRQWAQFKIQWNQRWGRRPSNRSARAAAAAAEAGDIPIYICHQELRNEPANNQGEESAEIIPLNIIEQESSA
The experiment in a line: cell-based or functional assay.

Test [2] deals with T2, human amylin 3(a) receptor (human calcitonin receptor plus RAMP-3) (human, UniProt P30988 25-474; O60896 24-148, limits assumed).
T2 sequence (looked up) 1: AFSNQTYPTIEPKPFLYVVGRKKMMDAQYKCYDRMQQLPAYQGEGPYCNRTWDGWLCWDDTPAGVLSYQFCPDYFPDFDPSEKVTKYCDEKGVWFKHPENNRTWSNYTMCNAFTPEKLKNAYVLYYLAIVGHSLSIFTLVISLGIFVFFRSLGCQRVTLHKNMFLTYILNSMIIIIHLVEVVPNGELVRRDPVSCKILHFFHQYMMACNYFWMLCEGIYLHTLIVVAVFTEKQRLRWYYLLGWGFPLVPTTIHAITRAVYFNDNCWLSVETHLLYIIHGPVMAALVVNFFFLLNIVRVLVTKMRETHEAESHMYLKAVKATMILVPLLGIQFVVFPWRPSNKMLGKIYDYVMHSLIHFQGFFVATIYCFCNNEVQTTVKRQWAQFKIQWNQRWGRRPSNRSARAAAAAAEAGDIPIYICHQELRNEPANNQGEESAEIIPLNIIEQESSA
T2 sequence (looked up) 2: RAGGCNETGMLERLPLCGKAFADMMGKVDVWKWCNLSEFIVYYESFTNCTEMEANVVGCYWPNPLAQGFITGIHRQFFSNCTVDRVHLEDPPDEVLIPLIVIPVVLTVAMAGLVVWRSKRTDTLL
Briefly: cell-based or functional assay.

Test [3] has as its target T2, human amylin 3(a) receptor (human …). The experiment in a line: SPA competition binding, displacement of 125I-rat amylin from membranes of Amylin 3(a)/CRE-luc BHK cells (Assay V). In outline: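 SPA beads + BHK amylin 3(a)/CRE-luc membranes, 35 ng/μL final; buffer 50 mM Hepes pH 7.4, 1 mM CaCl2, 5 mM MgCl₂, 0.1% OA, 0.02% Tween20. 120 min, 25° C, shaken; scintillation count. IC₅₀ by one-site binding competition fit, taken as receptor affinity.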
In general terms: In a radioligand displacement assay an active substance lowers the binding of a labelled ligand.

Numbered stars: 1 amine (or outer) side, 2 acyl side, 3 side chain; on linkers, the order of the positions; unused ones are H or OH. Bridge positions count the residues as written; N and C are the ends. Side chains are listed from the residue outwards. Ends that are not written are not given here. * marks the point of attachment. C20 diacid = O=C(O)CCCCCCCCCCCCCCCCCCC(=O)*; γGlu = O=C(O)[C@H](CCC(=O)[*:2])N[*:1]

B1: N^ε1-[(4S)-4-carboxy-4-(19-carboxynonadecanoylamino)butanoyl]-[Glu14,Arg17,Pro21,Pro27,Pro34,Glu35]-h-amylin (peptide)
peptide: K([γGlu-C20 diacid])CNTATCATQRLAEFLRHSSPNFGAIPSSTNVGPETY-NH2
modifications: disulfide 2-7; N-terminus assumed
SMILES: CC[C@H](C)[C@H](NC(=O)[C@H](C)NC(=O)CNC(=O)[C@H](Cc1ccccc1)NC(=O)[C@H](CC(N)=O)NC(=O)[C@@H]1CCCN1C(=O)[C@H](CO)NC(=O)[C@H](CO)NC(=O)[C@H](Cc1c[nH]cn1)NC(=O)[C@H](CCCNC(=N)N)NC(=O)[C@H](CC(C)C)NC(=O)[C@H](Cc1ccccc1)NC(=O)[C@H](CCC(=O)O)NC(=O)[C@H](C)NC(=O)[C@H](CC(C)C)NC(=O)[C@H](CCCNC(=N)N)NC(=O)[C@H](CCC(N)=O)NC(=O)[C@@H](NC(=O)[C@H](C)NC(=O)[C@@H]1CSSC[C@H](NC(=O)[C@@H](N)CCCCNC(=O)CC[C@H](NC(=O)CCCCCCCCCCCCCCCCCCC(=O)O)C(=O)O)C(=O)N[C@@H](CC(N)=O)C(=O)N[C@@H]([C@@H](C)O)C(=O)N[C@@H](C)C(=O)N[C@@H]([C@@H](C)O)C(=O)N1)[C@@H](C)O)C(=O)N1CCC[C@H]1C(=O)N[C@@H](CO)C(=O)N[C@@H](CO)C(=O)N[C@H](C(=O)N[C@@H](CC(N)=O)C(=O)N[C@H](C(=O)NCC(=O)N1CCC[C@H]1C(=O)N[C@@H](CCC(=O)O)C(=O)N[C@H](C(=O)N[C@@H](Cc1ccc(O)cc1)C(N)=O)[C@@H](C)O)C(C)C)[C@@H](C)O
In the case of B1, the “hCTR funct. EC50” value in test [1] was 0.841 nM. Further, in test [2], the “Ratio hCT/hAmylin funct.” value came out at 5.2 and the “hAmylin-R funct. EC50” value worked out at 0.161 nM. In test [3], the 50% inhibitory concentration (IC50) – broadly, the concentration needed to halve the response being measured – was determined as 0.14 nM.

B2: N^ε1-[(4S)-4-carboxy-4-[[(4S)-4-carboxy-4-(19-carboxynonadecanoylamino)butanoyl]amino]butanoyl]-[Glu14,Arg17,Pro21,Pro27,Arg34,Glu35]-h-amylin (peptide)
peptide: K([γGlu-γGlu-C20 diacid])CNTATCATQRLAEFLRHSSPNFGAIPSSTNVGRETY-NH2
modifications: disulfide 2-7; N-terminus assumed
SMILES: CC[C@H](C)[C@H](NC(=O)[C@H](C)NC(=O)CNC(=O)[C@H](Cc1ccccc1)NC(=O)[C@H](CC(N)=O)NC(=O)[C@@H]1CCCN1C(=O)[C@H](CO)NC(=O)[C@H](CO)NC(=O)[C@H](Cc1c[nH]cn1)NC(=O)[C@H](CCCNC(=N)N)NC(=O)[C@H](CC(C)C)NC(=O)[C@H](Cc1ccccc1)NC(=O)[C@H](CCC(=O)O)NC(=O)[C@H](C)NC(=O)[C@H](CC(C)C)NC(=O)[C@H](CCCNC(=N)N)NC(=O)[C@H](CCC(N)=O)NC(=O)[C@@H](NC(=O)[C@H](C)NC(=O)[C@@H]1CSSC[C@H](NC(=O)[C@@H](N)CCCCNC(=O)CC[C@H](NC(=O)CC[C@H](NC(=O)CCCCCCCCCCCCCCCCCCC(=O)O)C(=O)O)C(=O)O)C(=O)N[C@@H](CC(N)=O)C(=O)N[C@@H]([C@@H](C)O)C(=O)N[C@@H](C)C(=O)N[C@@H]([C@@H](C)O)C(=O)N1)[C@@H](C)O)C(=O)N1CCC[C@H]1C(=O)N[C@@H](CO)C(=O)N[C@@H](CO)C(=O)N[C@H](C(=O)N[C@@H](CC(N)=O)C(=O)N[C@H](C(=O)NCC(=O)N[C@@H](CCCNC(=N)N)C(=O)N[C@@H](CCC(=O)O)C(=O)N[C@H](C(=O)N[C@@H](Cc1ccc(O)cc1)C(N)=O)[C@@H](C)O)C(C)C)[C@@H](C)O
Regarding B2, the “hCTR funct. EC50” value in test [1] came out at 7.43 nM. In addition, the “hAmylin-R funct. EC50” value in test [2] came out at 0.703 nM. In addition, the IC50 in test [3] is 0.957 nM.

B3: N^ε1-[(4S)-4-carboxy-4-(19-carboxynonadecanoylamino)butanoyl]-[Glu14,Arg17,Pro21,Pro27,Pro34,Pro37]-h-amylin (peptide)
peptide: K([γGlu-C20 diacid])CNTATCATQRLAEFLRHSSPNFGAIPSSTNVGPNTP-NH2
modifications: disulfide 2-7; N-terminus assumed
SMILES: CC[C@H](C)[C@H](NC(=O)[C@H](C)NC(=O)CNC(=O)[C@H](Cc1ccccc1)NC(=O)[C@H](CC(N)=O)NC(=O)[C@@H]1CCCN1C(=O)[C@H](CO)NC(=O)[C@H](CO)NC(=O)[C@H](Cc1c[nH]cn1)NC(=O)[C@H](CCCNC(=N)N)NC(=O)[C@H](CC(C)C)NC(=O)[C@H](Cc1ccccc1)NC(=O)[C@H](CCC(=O)O)NC(=O)[C@H](C)NC(=O)[C@H](CC(C)C)NC(=O)[C@H](CCCNC(=N)N)NC(=O)[C@H](CCC(N)=O)NC(=O)[C@@H](NC(=O)[C@H](C)NC(=O)[C@@H]1CSSC[C@H](NC(=O)[C@@H](N)CCCCNC(=O)CC[C@H](NC(=O)CCCCCCCCCCCCCCCCCCC(=O)O)C(=O)O)C(=O)N[C@@H](CC(N)=O)C(=O)N[C@@H]([C@@H](C)O)C(=O)N[C@@H](C)C(=O)N[C@@H]([C@@H](C)O)C(=O)N1)[C@@H](C)O)C(=O)N1CCC[C@H]1C(=O)N[C@@H](CO)C(=O)N[C@@H](CO)C(=O)N[C@H](C(=O)N[C@@H](CC(N)=O)C(=O)N[C@H](C(=O)NCC(=O)N1CCC[C@H]1C(=O)N[C@@H](CC(N)=O)C(=O)N[C@H](C(=O)N1CCC[C@H]1C(N)=O)[C@@H](C)O)C(C)C)[C@@H](C)O
For the molecule B3, the “hCTR funct. EC50” value in test [1] was found to be 0.09 nM. In test [2], the “Ratio hCT/hAmylin funct.” value worked out at 0.9 and the “hAmylin-R funct. EC50” value worked out at 0.105 nM. The IC50 in test [3] worked out at 0.214 nM.

B4: N^ε1-[(4S)-4-carboxy-4-[[(4S)-4-carboxy-4-(19-carboxynonadecanoylamino)butanoyl]amino]butanoyl]-[Glu14,Arg17,Pro21,Pro27,Arg35]-h-amylin (peptide)
peptide: K([γGlu-γGlu-C20 diacid])CNTATCATQRLAEFLRHSSPNFGAIPSSTNVGSRTY-NH2
modifications: disulfide 2-7; N-terminus assumed
SMILES: CC[C@H](C)[C@H](NC(=O)[C@H](C)NC(=O)CNC(=O)[C@H](Cc1ccccc1)NC(=O)[C@H](CC(N)=O)NC(=O)[C@@H]1CCCN1C(=O)[C@H](CO)NC(=O)[C@H](CO)NC(=O)[C@H](Cc1c[nH]cn1)NC(=O)[C@H](CCCNC(=N)N)NC(=O)[C@H](CC(C)C)NC(=O)[C@H](Cc1ccccc1)NC(=O)[C@H](CCC(=O)O)NC(=O)[C@H](C)NC(=O)[C@H](CC(C)C)NC(=O)[C@H](CCCNC(=N)N)NC(=O)[C@H](CCC(N)=O)NC(=O)[C@@H](NC(=O)[C@H](C)NC(=O)[C@@H]1CSSC[C@H](NC(=O)[C@@H](N)CCCCNC(=O)CC[C@H](NC(=O)CC[C@H](NC(=O)CCCCCCCCCCCCCCCCCCC(=O)O)C(=O)O)C(=O)O)C(=O)N[C@@H](CC(N)=O)C(=O)N[C@@H]([C@@H](C)O)C(=O)N[C@@H](C)C(=O)N[C@@H]([C@@H](C)O)C(=O)N1)[C@@H](C)O)C(=O)N1CCC[C@H]1C(=O)N[C@@H](CO)C(=O)N[C@@H](CO)C(=O)N[C@H](C(=O)N[C@@H](CC(N)=O)C(=O)N[C@H](C(=O)NCC(=O)N[C@@H](CO)C(=O)N[C@@H](CCCNC(=N)N)C(=O)N[C@H](C(=O)N[C@@H](Cc1ccc(O)cc1)C(N)=O)[C@@H](C)O)C(C)C)[C@@H](C)O
notes: also called compound 89
As for B4, in test [1], the “hCTR funct. EC50” value stood at 11.2 nM. Also, in test [2], the “Ratio hCT/hAmylin funct.” value is 27.8 and the “hAmylin-R funct. EC50” value turned out to be 0.404 nM. The concentration for half-maximal inhibition (IC50) in test [3] was determined as 1.16 nM.

On to K([γGlu-C20 diacid])CNTATCATQRLAEFLRHSSPNFGAIPSSTNVGPHTY-NH2 (disulfide 2-7), for which, in test [1], the “hCTR funct. EC50” value is 1.45 nM. In test [2], the “hAmylin-R funct. EC50” value was found to be 0.101 nM. Moreover, the concentration for half-maximal inhibition (IC50) in test [3] worked out at 0.179 nM.

B5: N^ε1-[(4S)-4-carboxy-4-[[(4S)-4-carboxy-4-(19-carboxynonadecanoylamino)butanoyl]amino]butanoyl]-[Glu14,Arg17,Pro21,Pro27,Arg34]-h-amylin (peptide)
peptide: K([γGlu-γGlu-C20 diacid])CNTATCATQRLAEFLRHSSPNFGAIPSSTNVGRNTY-NH2
modifications: disulfide 2-7; N-terminus assumed
SMILES: CC[C@H](C)[C@H](NC(=O)[C@H](C)NC(=O)CNC(=O)[C@H](Cc1ccccc1)NC(=O)[C@H](CC(N)=O)NC(=O)[C@@H]1CCCN1C(=O)[C@H](CO)NC(=O)[C@H](CO)NC(=O)[C@H](Cc1c[nH]cn1)NC(=O)[C@H](CCCNC(=N)N)NC(=O)[C@H](CC(C)C)NC(=O)[C@H](Cc1ccccc1)NC(=O)[C@H](CCC(=O)O)NC(=O)[C@H](C)NC(=O)[C@H](CC(C)C)NC(=O)[C@H](CCCNC(=N)N)NC(=O)[C@H](CCC(N)=O)NC(=O)[C@@H](NC(=O)[C@H](C)NC(=O)[C@@H]1CSSC[C@H](NC(=O)[C@@H](N)CCCCNC(=O)CC[C@H](NC(=O)CC[C@H](NC(=O)CCCCCCCCCCCCCCCCCCC(=O)O)C(=O)O)C(=O)O)C(=O)N[C@@H](CC(N)=O)C(=O)N[C@@H]([C@@H](C)O)C(=O)N[C@@H](C)C(=O)N[C@@H]([C@@H](C)O)C(=O)N1)[C@@H](C)O)C(=O)N1CCC[C@H]1C(=O)N[C@@H](CO)C(=O)N[C@@H](CO)C(=O)N[C@H](C(=O)N[C@@H](CC(N)=O)C(=O)N[C@H](C(=O)NCC(=O)N[C@@H](CCCNC(=N)N)C(=O)N[C@@H](CC(N)=O)C(=O)N[C@H](C(=O)N[C@@H](Cc1ccc(O)cc1)C(N)=O)[C@@H](C)O)C(C)C)[C@@H](C)O
notes: also called compound 88
Consider B5, for which the “hCTR funct. EC50” value in test [1] is 6.55 nM. Also, in test [2], the “Ratio hCT/hAmylin funct.” value stood at 8.5 and the “hAmylin-R funct. EC50” value is 0.773 nM. Also, in test [3], the IC50 stood at 0.75 nM.

The values are drawn from patent publication US20140087995A1 (published 2014).
